For data set [1], the target named is T1, CsrA-His6 (Campylobacter jejuni 81-176) (UniProt Q0P9F1).
T1 sequence: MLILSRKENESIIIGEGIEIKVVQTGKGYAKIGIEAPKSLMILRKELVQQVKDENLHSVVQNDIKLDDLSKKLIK
Kind of data set: EMSA. Particulars: 10 mM Tris-HCl pH 7.5, 10 mM MgCl2, 100 mM KCl, 32.5 ng yeast RNA, 20 mM DTT, 7.5% glycerol, 4 U RNase inhibitor, 10 ul, 30 min at 37 C; 15% native PAGE. In general terms: A gel shift assay detects complexes by their altered migration in electrophoresis.

Data set [2] concerns CsrA-His6 (Campylobacter jejuni 81-176). The data set can be described thus: EMSA. The note with it: 10 mM Tris-HCl pH 7.5, 10 mM MgCl2, 100 mM KCl, 32.5 ng yeast RNA, 20 mM DTT, 7.5% glycerol, 4 U RNase inhibitor, 10 ul, 30 min at 37 C; 15% native PAGE.

The term Kd denotes the constant that tells how readily two partners part at equilibrium. A high value points to lower affinity.

With “GGGUAUAAAUUUUUAAAAAAAAGUAACGAUAUAGCAUUUAACAAGCUCAUGGAUGAGUUUGAAAUUAUUUAAAAGGAUUUAAA [flaA mRNA 5' end transcript]”, in data set [1], the Kd came to 6.53 nM.

flaA mRNA 5' end transcript: in data set [2], the Kd turned out to be 6.53 nM.

The values above are taken from paper PMC4892619.
